Biological target: the molecule itself
Assay: SEC

B1: Full-length His6-tagged NrpR from Methanococcus maripaludis (MmNrpR) (natural protein, UniProt Q6LZL7 1-536, looked up)
chain: MDSNIDVEILSILSEASAPVGAKIIADSLKDRGYDIGERAVRYHLKVLDENSLTKKLGYSGREITEKGIEELEKANISFRIGSVFSQVIEKLYLSDFPSKVLINTAKFEGDYKTIKEMVLRSFEAGYSVGDYLNIKKKGNTVSVETLCSITFDNFLLKNGIIPTPEYGGIVKFEDYEPVNFEGVIDFKSSSIDPLVAFIMQGKTDVIGVIENGEGLVPANFRVIPKSSEKQFETILKKDMLNSVLAYGTENVLGMNLNPEQIGVVLVGGLTPLCVPHESGYTADISAATQLKDISSMEKKTKGFLEAKKKKGKFKVTPVLSKMLSKMQTINYDIEDKKGNVVVNTAKIPIEYKEEAINALKDSYENKLAISDRLKVECDDKFLNAYTICSLTVDGVFLKNKIPVIPYYGGILEVKADKKRFIEAIDYEGTSLDPHEVFFNKADGKNYILAGIRKVPMSASEKLIELNEKLGWNSIIEIGRPNNDICGVRVEKCMFGITTIGGTNPFANIRKNNIPVEMKTLHKSIDYSELTHYDDI
With B1 the “stoichiometry N” value was 2.
